This data set is described as follows: Isoelectric point of the pentapeptide. The format is physicochemical.

Consider “Tyr-Gly-Phe-Gly-Gly (YGFGG; OGP(10-14); listed as Homo sapiens)”, for which the isoelectric point worked out at 5.52.

For the origin of these results see patent publication US20200405610A1, “COSMETIC COMPOSITION” (Shaanxi Huikang Bio-Tech Co., Ltd., priority 2016, published 2020).
